Reference: paper PMC7159904

Target: Dispatched-yellow fluorescent protein (YFP) (D. melanogaster) (UniProt Q9VNJ5)
Assay: MST

UniProt Q9VNJ5, sequence (Q9VNJ5 whole entry): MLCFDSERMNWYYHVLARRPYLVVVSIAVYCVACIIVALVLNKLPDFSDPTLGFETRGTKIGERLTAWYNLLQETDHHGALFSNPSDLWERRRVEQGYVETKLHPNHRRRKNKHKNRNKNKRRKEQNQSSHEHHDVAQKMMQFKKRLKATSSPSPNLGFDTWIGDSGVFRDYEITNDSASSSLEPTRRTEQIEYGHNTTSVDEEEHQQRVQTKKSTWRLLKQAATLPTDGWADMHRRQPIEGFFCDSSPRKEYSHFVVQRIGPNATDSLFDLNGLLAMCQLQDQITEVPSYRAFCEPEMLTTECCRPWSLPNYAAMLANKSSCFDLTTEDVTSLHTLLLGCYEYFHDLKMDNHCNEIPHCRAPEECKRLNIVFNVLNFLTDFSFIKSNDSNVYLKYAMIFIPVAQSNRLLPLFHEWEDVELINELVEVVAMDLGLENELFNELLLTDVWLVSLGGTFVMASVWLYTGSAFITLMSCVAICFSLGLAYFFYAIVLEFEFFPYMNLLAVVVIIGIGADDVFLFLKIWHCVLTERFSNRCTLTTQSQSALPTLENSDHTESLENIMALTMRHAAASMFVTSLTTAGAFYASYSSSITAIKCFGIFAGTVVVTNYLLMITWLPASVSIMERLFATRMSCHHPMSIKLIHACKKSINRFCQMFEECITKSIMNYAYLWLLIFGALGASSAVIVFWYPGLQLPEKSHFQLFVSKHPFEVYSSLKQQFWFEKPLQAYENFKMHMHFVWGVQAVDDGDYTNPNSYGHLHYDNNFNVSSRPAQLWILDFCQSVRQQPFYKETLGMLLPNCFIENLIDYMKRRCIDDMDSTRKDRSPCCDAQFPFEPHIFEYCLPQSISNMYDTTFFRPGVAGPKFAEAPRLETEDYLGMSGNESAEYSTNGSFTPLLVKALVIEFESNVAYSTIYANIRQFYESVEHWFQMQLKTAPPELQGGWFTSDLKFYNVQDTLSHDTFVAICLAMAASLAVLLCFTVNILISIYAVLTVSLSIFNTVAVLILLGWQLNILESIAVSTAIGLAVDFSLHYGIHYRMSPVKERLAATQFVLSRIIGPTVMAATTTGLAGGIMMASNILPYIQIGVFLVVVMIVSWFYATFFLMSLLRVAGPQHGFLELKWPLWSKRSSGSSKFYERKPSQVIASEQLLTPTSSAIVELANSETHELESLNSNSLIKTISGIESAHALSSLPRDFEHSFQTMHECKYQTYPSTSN

Substance: modified D. melanogaster hedgehog N-terminal fragment HhN_(C85II) (from UniProt Q02936 85-257) (ligand)
- Kd: 6.2 µM
